Source: PMC5364489, “Isolation and characterization of the E. coli membrane protein production strain Mutant56(DE3)”

Target: wild-type T7 RNA polymerase (Enterobacteria phage T7 (gene from E. …, UniProt P00573 1-883))
Assay: EMSA; 2.5 uM dsDNA; half-saturation compared only in figure, not a true Kd; 50 mM Tris acetate, 10 mM magnesium acetate, 50 mM sodium acetate (pH not stated), 25 °C, 30 min; 1.5% TAE agarose gel
Conditions: protein: recombinant; label: 5' ATTO488 on strand 1; blunt

Chain of wild-type T7 RNA polymerase (Enterobacteria phage T7 (P00573 whole entry): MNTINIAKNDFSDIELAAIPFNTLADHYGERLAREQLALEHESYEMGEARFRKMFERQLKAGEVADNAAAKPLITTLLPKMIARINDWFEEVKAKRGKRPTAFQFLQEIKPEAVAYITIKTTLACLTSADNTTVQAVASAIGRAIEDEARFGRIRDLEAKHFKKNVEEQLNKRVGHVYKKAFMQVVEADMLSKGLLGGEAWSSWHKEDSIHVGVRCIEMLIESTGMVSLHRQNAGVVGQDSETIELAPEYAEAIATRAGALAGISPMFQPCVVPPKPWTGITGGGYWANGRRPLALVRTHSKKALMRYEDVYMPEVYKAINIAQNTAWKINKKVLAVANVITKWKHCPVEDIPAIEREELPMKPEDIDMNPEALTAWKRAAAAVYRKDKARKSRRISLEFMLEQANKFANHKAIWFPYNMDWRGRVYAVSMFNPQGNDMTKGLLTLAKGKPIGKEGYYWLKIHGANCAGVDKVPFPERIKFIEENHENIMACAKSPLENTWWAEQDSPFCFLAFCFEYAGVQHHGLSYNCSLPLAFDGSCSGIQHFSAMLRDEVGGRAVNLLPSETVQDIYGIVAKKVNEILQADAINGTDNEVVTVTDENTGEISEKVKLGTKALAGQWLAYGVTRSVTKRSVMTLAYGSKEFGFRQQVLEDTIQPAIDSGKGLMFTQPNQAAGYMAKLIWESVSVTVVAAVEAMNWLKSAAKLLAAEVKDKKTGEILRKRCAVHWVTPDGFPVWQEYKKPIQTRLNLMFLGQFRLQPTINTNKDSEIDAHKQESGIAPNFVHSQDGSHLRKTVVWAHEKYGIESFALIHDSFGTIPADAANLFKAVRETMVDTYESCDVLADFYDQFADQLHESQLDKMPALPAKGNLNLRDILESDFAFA

B1: T7 promoter dsDNA (dsDNA)
DNA 1: GCCAGTAATACGACTCACTATAGGG
DNA 2: CCCTATAGTGAGTCGTATTACTGGC
B1: binds.
